Measured values as given in IntAct's records for PubMed 16107882.

B1: Bud site selection protein 14 (Saccharomyces cerevisiae), P27637 (parent)
chain: MSNKEEHVDETSASGVKEVSSIAARHDNGYAPSLITSTSGMDSFQSHALLNDPTLIEDYSDIINNRPTSGSKLTLGNEDSESMGGSVVVTPTSNKSSPFNSKLNILSNAAEKGHDVLRNRDDDKELEEENVEKHMHSNSKRDQRHYKENSSELPDSYDYSDSEFEDNLERRLQEIETDSVDSADKDEVHFSVNNTMNPDVDDFSDGLKYAISEDEDEEENYSDDDDFDRKFQDSGFQGEKDDLEEENDDYQPLSPPRELDPDKLYALYAFNGHDSSHCQLGQDEPCILLNDQDAYWWLVKRITDGKIGFAPAEILETFPERLARLNCWKNENMSSQSVASSDSKDDSISSGNKNQSDAESIIPTPALNGYGKGNKSVSFNDVVGYADRFIDDAIEDTSLDSNDDGGEGNGQSYDDDVDNDKETKVTHRDEYTEAKLNFGKFQDDDTSDVVSDVSFSTSLNTPLNVKKVRRQDNKNESEPKTSSSKDREDDYNANRYVGQEKSEPVDSDYDTDLKKVFEAPRMPFANGMAKSDSQNSLSTIGEFSPSSSEWTNESPSTPIVEESSSIPSSRAIKDISQYIHAKSKIEETTNVENTEGQIQASLGSSGGMANQTDAEQPKEELEKHHSTPEEEKQSTLSLHSSSEEDFYMDEQRAVSSASINSSLSGSRALSNTNMSDPASKPNSLVQHLYAPVFDRMDVLMKQLDEIIRK

Variants of: B1
Conditions: with pp12_yeast GLC7, P32598
Chain of pp12_yeast GLC7, P32598 (P32598 whole entry): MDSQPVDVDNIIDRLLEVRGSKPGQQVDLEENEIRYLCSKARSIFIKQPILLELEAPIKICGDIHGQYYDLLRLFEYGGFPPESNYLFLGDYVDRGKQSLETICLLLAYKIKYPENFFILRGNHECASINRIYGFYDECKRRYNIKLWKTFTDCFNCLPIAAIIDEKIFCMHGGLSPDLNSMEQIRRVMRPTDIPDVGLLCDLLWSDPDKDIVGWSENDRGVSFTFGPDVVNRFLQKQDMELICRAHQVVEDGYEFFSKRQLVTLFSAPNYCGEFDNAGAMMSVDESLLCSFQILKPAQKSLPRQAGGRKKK

Row | effect of a mutation on the interaction | Variant
1 | decreasing interaction | F379A
2 | decreasing interaction | V377A

Variants of: B1
Conditions: with bem2_yeast BEM2, P39960
Chain of bem2_yeast BEM2, P39960 (P39960 whole entry): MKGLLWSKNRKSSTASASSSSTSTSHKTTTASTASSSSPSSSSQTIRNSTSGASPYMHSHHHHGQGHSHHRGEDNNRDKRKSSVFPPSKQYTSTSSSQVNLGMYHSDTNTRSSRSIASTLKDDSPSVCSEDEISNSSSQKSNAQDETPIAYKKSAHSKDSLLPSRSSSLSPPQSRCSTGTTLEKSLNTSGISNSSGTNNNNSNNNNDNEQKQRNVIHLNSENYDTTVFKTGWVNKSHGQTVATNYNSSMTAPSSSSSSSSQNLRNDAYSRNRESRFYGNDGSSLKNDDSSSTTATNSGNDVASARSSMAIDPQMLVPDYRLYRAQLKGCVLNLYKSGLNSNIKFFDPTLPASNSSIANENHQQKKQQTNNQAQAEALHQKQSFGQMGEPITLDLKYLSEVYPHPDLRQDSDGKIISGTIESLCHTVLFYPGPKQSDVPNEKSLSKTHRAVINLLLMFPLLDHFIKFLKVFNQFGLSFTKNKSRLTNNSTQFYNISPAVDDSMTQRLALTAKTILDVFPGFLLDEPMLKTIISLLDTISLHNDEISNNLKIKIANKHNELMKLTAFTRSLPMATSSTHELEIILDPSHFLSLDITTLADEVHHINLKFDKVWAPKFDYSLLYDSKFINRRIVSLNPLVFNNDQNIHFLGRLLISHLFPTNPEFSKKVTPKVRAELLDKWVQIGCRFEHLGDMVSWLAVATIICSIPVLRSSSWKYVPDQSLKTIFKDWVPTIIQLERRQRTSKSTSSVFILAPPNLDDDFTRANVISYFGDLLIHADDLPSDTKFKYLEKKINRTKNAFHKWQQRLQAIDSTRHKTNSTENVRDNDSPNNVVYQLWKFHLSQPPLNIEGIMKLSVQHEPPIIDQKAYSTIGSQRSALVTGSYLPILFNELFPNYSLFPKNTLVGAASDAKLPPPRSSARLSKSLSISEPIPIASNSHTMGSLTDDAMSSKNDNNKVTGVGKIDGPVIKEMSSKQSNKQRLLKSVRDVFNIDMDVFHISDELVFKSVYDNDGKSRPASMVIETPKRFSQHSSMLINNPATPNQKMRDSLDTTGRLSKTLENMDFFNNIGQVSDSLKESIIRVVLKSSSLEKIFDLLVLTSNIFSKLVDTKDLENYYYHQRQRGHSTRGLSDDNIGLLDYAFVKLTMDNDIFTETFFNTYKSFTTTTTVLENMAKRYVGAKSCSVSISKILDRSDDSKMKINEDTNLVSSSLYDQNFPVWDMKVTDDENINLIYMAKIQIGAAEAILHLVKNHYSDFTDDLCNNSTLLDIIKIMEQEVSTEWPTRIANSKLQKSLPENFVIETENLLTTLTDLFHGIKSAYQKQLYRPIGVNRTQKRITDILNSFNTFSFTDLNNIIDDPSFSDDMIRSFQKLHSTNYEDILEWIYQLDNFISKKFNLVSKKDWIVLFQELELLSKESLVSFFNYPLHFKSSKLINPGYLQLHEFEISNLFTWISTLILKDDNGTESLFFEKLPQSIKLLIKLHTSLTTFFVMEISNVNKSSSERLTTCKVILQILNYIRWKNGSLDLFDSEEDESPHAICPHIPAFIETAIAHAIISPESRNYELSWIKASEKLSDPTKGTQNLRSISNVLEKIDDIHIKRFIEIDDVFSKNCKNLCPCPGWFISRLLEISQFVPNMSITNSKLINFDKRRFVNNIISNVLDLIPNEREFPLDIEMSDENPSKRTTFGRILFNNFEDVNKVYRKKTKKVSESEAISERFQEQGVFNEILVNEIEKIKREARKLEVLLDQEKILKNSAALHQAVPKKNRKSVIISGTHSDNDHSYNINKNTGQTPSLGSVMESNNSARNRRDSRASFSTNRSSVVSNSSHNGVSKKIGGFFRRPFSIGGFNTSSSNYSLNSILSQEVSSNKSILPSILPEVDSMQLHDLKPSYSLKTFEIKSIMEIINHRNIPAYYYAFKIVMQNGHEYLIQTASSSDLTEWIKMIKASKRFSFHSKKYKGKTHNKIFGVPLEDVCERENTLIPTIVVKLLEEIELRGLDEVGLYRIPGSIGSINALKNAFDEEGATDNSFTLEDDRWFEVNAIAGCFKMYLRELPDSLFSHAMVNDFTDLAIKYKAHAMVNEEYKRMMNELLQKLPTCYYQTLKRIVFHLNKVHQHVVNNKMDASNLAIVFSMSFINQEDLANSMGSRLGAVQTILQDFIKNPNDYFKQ

Row | effect of a mutation on the interaction | Variant
3 | decreasing interaction | F379A
